Results reported in US20140087995A1 (published 2014).
Numbered stars: 1 amine (or outer) side, 2 acyl side, 3 side chain; on linkers, the order of the positions; unused ones are H or OH. Bridge positions count the residues as written; N and C are the ends. Side chains are listed from the residue outwards. Ends that are not written are not given here. * marks the point of attachment. C20 diacid = O=C(O)CCCCCCCCCCCCCCCCCCC(=O)*; γGlu = O=C(O)[C@H](CCC(=O)[*:2])N[*:1]; AEEA = NCCOCCOCC(=O)O

T1: human amylin receptor (amylin 3(a) receptor: human calcitonin receptor plus RAMP-3) (human, UniProt P30988 25-474; O60896 24-148, limits assumed)
T1 sequence (looked up) 1: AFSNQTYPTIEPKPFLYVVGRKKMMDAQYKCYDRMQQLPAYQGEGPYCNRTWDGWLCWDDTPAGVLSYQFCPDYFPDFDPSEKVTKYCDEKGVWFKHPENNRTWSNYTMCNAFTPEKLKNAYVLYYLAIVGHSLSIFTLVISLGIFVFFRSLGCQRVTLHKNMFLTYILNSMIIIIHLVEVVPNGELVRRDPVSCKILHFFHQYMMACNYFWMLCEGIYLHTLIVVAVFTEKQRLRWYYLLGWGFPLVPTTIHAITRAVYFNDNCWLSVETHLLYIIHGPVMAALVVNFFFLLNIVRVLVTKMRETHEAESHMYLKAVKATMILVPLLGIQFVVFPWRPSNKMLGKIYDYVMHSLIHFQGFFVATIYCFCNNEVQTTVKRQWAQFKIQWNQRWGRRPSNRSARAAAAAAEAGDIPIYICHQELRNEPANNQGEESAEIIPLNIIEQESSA
T1 sequence (looked up) 2: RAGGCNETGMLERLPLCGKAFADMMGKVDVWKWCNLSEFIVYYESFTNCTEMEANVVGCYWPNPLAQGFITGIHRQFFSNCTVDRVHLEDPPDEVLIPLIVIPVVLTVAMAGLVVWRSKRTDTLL

T2: human calcitonin receptor (human, UniProt P30988 25-474)
T2 sequence (looked up): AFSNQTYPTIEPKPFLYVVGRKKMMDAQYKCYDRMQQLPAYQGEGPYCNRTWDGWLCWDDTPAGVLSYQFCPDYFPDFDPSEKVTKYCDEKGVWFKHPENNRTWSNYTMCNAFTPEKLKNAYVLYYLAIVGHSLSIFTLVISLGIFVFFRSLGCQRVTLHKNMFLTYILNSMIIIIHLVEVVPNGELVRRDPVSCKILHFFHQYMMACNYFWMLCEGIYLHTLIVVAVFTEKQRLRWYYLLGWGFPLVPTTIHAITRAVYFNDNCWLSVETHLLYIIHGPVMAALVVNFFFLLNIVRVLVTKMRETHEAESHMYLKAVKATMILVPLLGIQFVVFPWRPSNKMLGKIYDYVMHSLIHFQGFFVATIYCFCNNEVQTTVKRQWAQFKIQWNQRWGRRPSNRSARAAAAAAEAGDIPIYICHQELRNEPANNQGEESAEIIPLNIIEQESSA


How the values were obtained:
[1] = target: T1, human amylin receptor (amylin 3(a) …); test: cell-based or functional assay
[2] = target: T2, human calcitonin receptor; test: cell-based or functional assay

Row | Binder | Ratio hCT/hAmylin funct. [1] [ratio] | hAmylin-R funct. EC50 [1] [pM] | hCTR funct. EC50 [2] [pM]
1 | K([γGlu-γGlu-C20 diacid])CNTATCATQRLADFLRHSSPNFGAIPSSTNVGSDTY-NH2 (disulfide 2-7; N-terminus assumed; SMILES CC[C@H](C)[C@H](NC(=O)[C@H](C)NC(=O)CNC(=O)[C@H](Cc1ccccc1)NC(=O)[C@H](CC(N)=O)NC(=O)[C@@H]1CCCN1C(=O)[C@H](CO)NC(=O)[C@H](CO)NC(=O)[C@H](Cc1c[nH]cn1)NC(=O)[C@H](CCCNC(=N)N)NC(=O)[C@H](CC(C)C)NC(=O)[C@H](Cc1ccccc1)NC(=O)[C@H](CC(=O)O)NC(=O)[C@H](C)NC(=O)[C@H](CC(C)C)NC(=O)[C@H](CCCNC(=N)N)NC(=O)[C@H](CCC(N)=O)NC(=O)[C@@H](NC(=O)[C@H](C)NC(=O)[C@@H]1CSSC[C@H](NC(=O)[C@@H](N)CCCCNC(=O)CC[C@H](NC(=O)CC[C@H](NC(=O)CCCCCCCCCCCCCCCCCCC(=O)O)C(=O)O)C(=O)O)C(=O)N[C@@H](CC(N)=O)C(=O)N[C@@H]([C@@H](C)O)C(=O)N[C@@H](C)C(=O)N[C@@H]([C@@H](C)O)C(=O)N1)[C@@H](C)O)C(=O)N1CCC[C@H]1C(=O)N[C@@H](CO)C(=O)N[C@@H](CO)C(=O)N[C@H](C(=O)N[C@@H](CC(N)=O)C(=O)N[C@H](C(=O)NCC(=O)N[C@@H](CO)C(=O)N[C@@H](CC(=O)O)C(=O)N[C@H](C(=O)N[C@@H](Cc1ccc(O)cc1)C(N)=O)[C@@H](C)O)C(C)C)[C@@H](C)O, Synthetic acylated analogue of human amylin; also called compound 2) | 16.4 | 182 | 3000
2 | K([γGlu-C20 diacid])CNTATCATQRLANFLRHSSPNFGAIPSSTNVGSKTY-NH2 (disulfide 2-7; N-terminus assumed; SMILES CC[C@H](C)[C@H](NC(=O)[C@H](C)NC(=O)CNC(=O)[C@H](Cc1ccccc1)NC(=O)[C@H](CC(N)=O)NC(=O)[C@@H]1CCCN1C(=O)[C@H](CO)NC(=O)[C@H](CO)NC(=O)[C@H](Cc1c[nH]cn1)NC(=O)[C@H](CCCNC(=N)N)NC(=O)[C@H](CC(C)C)NC(=O)[C@H](Cc1ccccc1)NC(=O)[C@H](CC(N)=O)NC(=O)[C@H](C)NC(=O)[C@H](CC(C)C)NC(=O)[C@H](CCCNC(=N)N)NC(=O)[C@H](CCC(N)=O)NC(=O)[C@@H](NC(=O)[C@H](C)NC(=O)[C@@H]1CSSC[C@H](NC(=O)[C@@H](N)CCCCNC(=O)CC[C@H](NC(=O)CCCCCCCCCCCCCCCCCCC(=O)O)C(=O)O)C(=O)N[C@@H](CC(N)=O)C(=O)N[C@@H]([C@@H](C)O)C(=O)N[C@@H](C)C(=O)N[C@@H]([C@@H](C)O)C(=O)N1)[C@@H](C)O)C(=O)N1CCC[C@H]1C(=O)N[C@@H](CO)C(=O)N[C@@H](CO)C(=O)N[C@H](C(=O)N[C@@H](CC(N)=O)C(=O)N[C@H](C(=O)NCC(=O)N[C@@H](CO)C(=O)N[C@@H](CCCCN)C(=O)N[C@H](C(=O)N[C@@H](Cc1ccc(O)cc1)C(N)=O)[C@@H](C)O)C(C)C)[C@@H](C)O, Synthetic acylated analogue of human amylin; also called compound 35) [N^ε1-[(4S)-4-carboxy-4-(19-carboxynonadecanoylamino)butanoyl]-[Arg17,Pro21,Pro27,Lys35]-h-amylin] | 15 | 364 | 5460
3 | K([γGlu-C20 diacid])CNTATCATQRLAEFLRHSSPNFGAIPSSTNVGSRTY-NH2 (disulfide 2-7; N-terminus assumed; SMILES CC[C@H](C)[C@H](NC(=O)[C@H](C)NC(=O)CNC(=O)[C@H](Cc1ccccc1)NC(=O)[C@H](CC(N)=O)NC(=O)[C@@H]1CCCN1C(=O)[C@H](CO)NC(=O)[C@H](CO)NC(=O)[C@H](Cc1c[nH]cn1)NC(=O)[C@H](CCCNC(=N)N)NC(=O)[C@H](CC(C)C)NC(=O)[C@H](Cc1ccccc1)NC(=O)[C@H](CCC(=O)O)NC(=O)[C@H](C)NC(=O)[C@H](CC(C)C)NC(=O)[C@H](CCCNC(=N)N)NC(=O)[C@H](CCC(N)=O)NC(=O)[C@@H](NC(=O)[C@H](C)NC(=O)[C@@H]1CSSC[C@H](NC(=O)[C@@H](N)CCCCNC(=O)CC[C@H](NC(=O)CCCCCCCCCCCCCCCCCCC(=O)O)C(=O)O)C(=O)N[C@@H](CC(N)=O)C(=O)N[C@@H]([C@@H](C)O)C(=O)N[C@@H](C)C(=O)N[C@@H]([C@@H](C)O)C(=O)N1)[C@@H](C)O)C(=O)N1CCC[C@H]1C(=O)N[C@@H](CO)C(=O)N[C@@H](CO)C(=O)N[C@H](C(=O)N[C@@H](CC(N)=O)C(=O)N[C@H](C(=O)NCC(=O)N[C@@H](CO)C(=O)N[C@@H](CCCNC(=N)N)C(=O)N[C@H](C(=O)N[C@@H](Cc1ccc(O)cc1)C(N)=O)[C@@H](C)O)C(C)C)[C@@H](C)O, Synthetic acylated analogue of human amylin; also called compound 51) | 14 | 372 | 5220

Second part, the binder after the results:

Row | Ratio hCT/hAmylin funct. [1] [ratio] | hAmylin-R funct. EC50 [1] [pM] | hCTR funct. EC50 [2] [pM] | Binder
4 | 17.4 | 38 | 662 | K([AEEA-γGlu-C20 diacid])CNTATCATQRLANFLRHSSPNFGAIPSSTNVGPNTY-NH2 (disulfide 2-7; N-terminus assumed; SMILES CC[C@H](C)[C@H](NC(=O)[C@H](C)NC(=O)CNC(=O)[C@H](Cc1ccccc1)NC(=O)[C@H](CC(N)=O)NC(=O)[C@@H]1CCCN1C(=O)[C@H](CO)NC(=O)[C@H](CO)NC(=O)[C@H](Cc1c[nH]cn1)NC(=O)[C@H](CCCNC(=N)N)NC(=O)[C@H](CC(C)C)NC(=O)[C@H](Cc1ccccc1)NC(=O)[C@H](CC(N)=O)NC(=O)[C@H](C)NC(=O)[C@H](CC(C)C)NC(=O)[C@H](CCCNC(=N)N)NC(=O)[C@H](CCC(N)=O)NC(=O)[C@@H](NC(=O)[C@H](C)NC(=O)[C@@H]1CSSC[C@H](NC(=O)[C@@H](N)CCCCNC(=O)COCCOCCNC(=O)CC[C@H](NC(=O)CCCCCCCCCCCCCCCCCCC(=O)O)C(=O)O)C(=O)N[C@@H](CC(N)=O)C(=O)N[C@@H]([C@@H](C)O)C(=O)N[C@@H](C)C(=O)N[C@@H]([C@@H](C)O)C(=O)N1)[C@@H](C)O)C(=O)N1CCC[C@H]1C(=O)N[C@@H](CO)C(=O)N[C@@H](CO)C(=O)N[C@H](C(=O)N[C@@H](CC(N)=O)C(=O)N[C@H](C(=O)NCC(=O)N1CCC[C@H]1C(=O)N[C@@H](CC(N)=O)C(=O)N[C@H](C(=O)N[C@@H](Cc1ccc(O)cc1)C(N)=O)[C@@H](C)O)C(C)C)[C@@H](C)O, Synthetic acylated analogue of human amylin; also called compound 50)
5 | 12 | 224 | 2700 | K([γGlu-γGlu-C20 diacid])CNTATCATQRLADFLRHSSPNFGAPLSSTNVGSDTY-NH2 (disulfide 2-7; N-terminus assumed; SMILES CC(C)C[C@H](NC(=O)[C@H](CCCNC(=N)N)NC(=O)[C@H](CCC(N)=O)NC(=O)[C@@H](NC(=O)[C@H](C)NC(=O)[C@@H]1CSSC[C@H](NC(=O)[C@@H](N)CCCCNC(=O)CC[C@H](NC(=O)CC[C@H](NC(=O)CCCCCCCCCCCCCCCCCCC(=O)O)C(=O)O)C(=O)O)C(=O)N[C@@H](CC(N)=O)C(=O)N[C@@H]([C@@H](C)O)C(=O)N[C@@H](C)C(=O)N[C@@H]([C@@H](C)O)C(=O)N1)[C@@H](C)O)C(=O)N[C@@H](C)C(=O)N[C@@H](CC(=O)O)C(=O)N[C@@H](Cc1ccccc1)C(=O)N[C@@H](CC(C)C)C(=O)N[C@@H](CCCNC(=N)N)C(=O)N[C@@H](Cc1c[nH]cn1)C(=O)N[C@@H](CO)C(=O)N[C@@H](CO)C(=O)N1CCC[C@H]1C(=O)N[C@@H](CC(N)=O)C(=O)N[C@@H](Cc1ccccc1)C(=O)NCC(=O)N[C@@H](C)C(=O)N1CCC[C@H]1C(=O)N[C@@H](CC(C)C)C(=O)N[C@@H](CO)C(=O)N[C@@H](CO)C(=O)N[C@H](C(=O)N[C@@H](CC(N)=O)C(=O)N[C@H](C(=O)NCC(=O)N[C@@H](CO)C(=O)N[C@@H](CC(=O)O)C(=O)N[C@H](C(=O)N[C@@H](Cc1ccc(O)cc1)C(N)=O)[C@@H](C)O)C(C)C)[C@@H](C)O, Synthetic acylated analogue of human amylin; also called compound 1)
6 | 22.6 | 133 | 3000 | K([γGlu-C20 diacid])CNTATCATQRLANFLRHSSPNFGAIPSSTNVGSETY-NH2 (disulfide 2-7; N-terminus assumed; SMILES CC[C@H](C)[C@H](NC(=O)[C@H](C)NC(=O)CNC(=O)[C@H](Cc1ccccc1)NC(=O)[C@H](CC(N)=O)NC(=O)[C@@H]1CCCN1C(=O)[C@H](CO)NC(=O)[C@H](CO)NC(=O)[C@H](Cc1c[nH]cn1)NC(=O)[C@H](CCCNC(=N)N)NC(=O)[C@H](CC(C)C)NC(=O)[C@H](Cc1ccccc1)NC(=O)[C@H](CC(N)=O)NC(=O)[C@H](C)NC(=O)[C@H](CC(C)C)NC(=O)[C@H](CCCNC(=N)N)NC(=O)[C@H](CCC(N)=O)NC(=O)[C@@H](NC(=O)[C@H](C)NC(=O)[C@@H]1CSSC[C@H](NC(=O)[C@@H](N)CCCCNC(=O)CC[C@H](NC(=O)CCCCCCCCCCCCCCCCCCC(=O)O)C(=O)O)C(=O)N[C@@H](CC(N)=O)C(=O)N[C@@H]([C@@H](C)O)C(=O)N[C@@H](C)C(=O)N[C@@H]([C@@H](C)O)C(=O)N1)[C@@H](C)O)C(=O)N1CCC[C@H]1C(=O)N[C@@H](CO)C(=O)N[C@@H](CO)C(=O)N[C@H](C(=O)N[C@@H](CC(N)=O)C(=O)N[C@H](C(=O)NCC(=O)N[C@@H](CO)C(=O)N[C@@H](CCC(=O)O)C(=O)N[C@H](C(=O)N[C@@H](Cc1ccc(O)cc1)C(N)=O)[C@@H](C)O)C(C)C)[C@@H](C)O, Synthetic acylated analogue of human amylin; also called compound 27) [N^ε1-[(4S)-4-carboxy-4-(19-carboxynonadecanoylamino)butanoyl]-[Arg17,Pro21,Pro27,Glu35]-h-amylin]
